Assay results from US20030100492A1, “Proteoglycans and pharmaceutical compositions comprising them” (published 2003).

Tests used:
[1] = target: Soluble FGFR2-alkaline phosphatase fusion protein (FR2-AP) (human) (UniProt P05187); test: FGF on Syn4-Fc, FGFR-AP; alkaline phosphatase activity and cross-linking of the receptors to radio-labeled bFGF
Recombinant human FGF2 = Recombinant human FGF2 (human, UniProt P09038, 125I label in the FIG. 1 assay and in the FGFR2-AP direct binding assay); test: immunoprecipitation with anti-P710, incubation with 50 ng FGF2, FB-8 immunoblot

Molecule “Recombinant human FGF2 (from UniProt P09038) (ligand)” has a fold less than with FGFR1 [1] of 2 fold less.

B1: Mouse syndecan-4 (full length) overexpressed in CHO-KI cells (other)
chain: ESIRETEVIDPQDLLEGRYFSGALPDDEDAGGSDDFELSGSGDLDDTEEPRPFPEVIEPLVPLDNHIPENAQPGIRVPSEPKELEENEVIPKRAPSDVGDDMSNKVSMSSTVQGSNIFERTEVLAALIVGGVVGILFAVFLILLLVYRMKKKDEGSYDLGKKPIYKKAPTNEFYA
modifications: heparan sulfate chains
For B1, the “fold more FGF2 bound than syndecan-4 from the CHO-KI parental cells” value (Recombinant human FGF2) was roughly 3 fold.
